Drawing on publication PMC5059767, this text covers reduction in mean FRET emission ratio of the PKA biosensor AKAR4-NES in HEK293T cells stimulated with Forskolin and IBMX and response for four substances.

In experiment [1] the target is endogenous PKAC (HEK293T) (human (endogenous in HEK293T)) (UniProt P17612).
In another experiment the target is mCherry-ARHGAP36. In words: FLIM-FRET (Venus-YFP donor fluorescence lifetime) in MDCK cells. The settings on record: n≥4 each; mean±s.d.; donor alone (PKAC-YFP) est. 3.0 ns; parent: est. 2.4; read off a plot.
The target in experiment [2] is PKAC-YFP (mouse PKAC-Venus-YFP), in MDCK cells (UniProt P05132). Described as above. The settings on record: n≥4 each; mean±s.d.; donor alone (PKAC-YFP) est. 3.0 ns; parent: est. 2.4; read off a plot.

Chain of ARHGAP36-N2 (118–194) (Q6ZRI8 149-225): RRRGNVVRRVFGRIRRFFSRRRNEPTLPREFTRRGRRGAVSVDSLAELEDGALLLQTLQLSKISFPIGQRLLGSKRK

In the case of “ARHGAP36-N2 (118–194) (from UniProt Q6ZRI8-2 118-194) (domain or fragment)”, the reduction in mean FRET emission ratio of the PKA biosensor AKAR4-NES in HEK293T cells stimulated with Forskolin and IBMX in experiment [1] was 25.1%.

As to “PKAC-YFP (mouse PKAC-Venus-YFP), in MDCK cells (from UniProt P05132) E127A; E170A; E230A”, in the experiment with mCherry-ARHGAP36, the response turned out to be 3 ns.

On to mCherry-ARHGAP36 (natural protein), for which the reduction in mean FRET emission ratio of the PKA biosensor AKAR4-NES in HEK293T cells stimulated with Forskolin and IBMX in experiment [1] was found to be 25.7%.

mCherry-ARHGAP36 R153D; R154D; V157D: in experiment [2], the response turned out to be 3 ns.
